tested on: T1, DasR (Streptomyces lincolnensis NBRC_13054), ORF:7245352e; experiment: EMSA; details: EMSA kit, 20 uL, 50 ng/uL Cy5 probe, 6% non-denaturing PAGE; fifth lane with 10 mg/mL salmon sperm DNA; buffer, pH, salt and temperature not given
T1 sequence: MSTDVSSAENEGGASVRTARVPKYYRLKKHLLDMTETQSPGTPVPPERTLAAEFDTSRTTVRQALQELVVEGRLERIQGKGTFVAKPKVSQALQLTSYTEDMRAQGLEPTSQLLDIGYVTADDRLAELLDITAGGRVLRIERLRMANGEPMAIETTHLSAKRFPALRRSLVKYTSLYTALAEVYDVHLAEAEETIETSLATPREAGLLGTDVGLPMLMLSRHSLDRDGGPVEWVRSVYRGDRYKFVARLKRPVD

Q: “AGCCAGTGGCGATAAGACGCACGTACGCAACTCCTTTCGGTTTCCCAGGAGTCACTCCCCGGTCCGGACGGGACATGAACTAATTCAGCTACTTATCGGTCAATCTTGAGCGCGTAGTGCCTTCATGTGGTCGGCAATGCCAGGTTCATGACATTCTCGAATGCTCGGCAATCACAGGCCCTACCGGCGGGGAGGACGCTGGTGGAGTTCGAGATCTTATCGCCACTGGCT (double strand) [SLINC_4481 promoter]” was tested. Which binding did it give?
A: Its binding is “no binding”.

Q: With “AGCCAGTGGCGATAAGAGGGCCTGGATGAGCTGCCTGTCCACCGCGTCCATGCGATCGAAGCCTTCCGATGAAGAGATCCCGAAGTGATGAGAGGTACTGCCCTGTGCCCTGCTGCTCTGTGCCGTGCTGCCCTGTGCCCTACTGCCCTGTGTCCTCTTATCGCCACTGGCT (double strand) [SLINC_4906 promoter]” as the sequence, how does the binding read?
A: The binding was “no binding”.

Q: How did the binding turn out when “AGCCAGTGGCGATAAGATATCCTCTTTCCCCGGGAGAGCCGGTCCCCGTGGTTGTCGCGACGGATGCTGTGGGTCTTCGGCGGGGTGTTCGCCCTCGGTACGGCACTCTTCGCGCTGATTTCCCTCCTGCGGTCGGATTTCCGCCTCTCCGTGGTCGAGATCGGTGCGGTGCTCGCGATCGTGGGACTGCTGACCTGGGCCGCTTCACGCTGCCAGGCCCGAGACACACCGTGTGTACCGAAGCGACTGCCTGGGACGCTACGGGCCGGATGGACTTATCGCCACTGGCT (double strand) [lmrA promoter]” was run?
A: The binding was “no binding”.

Q: “AGCCAGTGGCGATAAGATGACATGTCTCACGGGGGACAGTGTGACCCCAGGACCCGCAAGAGGTCTAGTCCACTCACGTGGTGTAGACCTTAGGGCGGCAATATGTATGACCTTTCGAGAGTTTTTCGATCAGTGATCTTGAGGCGGTTGGCAGTGCGGCGGCGTAGGACTTATCGCCACTGGCT (double strand) [nagK promoter]” was tested. Which binding did it give?
A: Its binding is “binds”.

Q: For “AGCCAGTGGCGATAAGATGACTCAAAAGACTCTCCTCACCACACGCGCCACGTAACGGTGGGCACGTGGCGCGCATGACGTTCGTGCAGAAGCAGTTGTCGTTGTGGACGCAGGCACCGGTGGCCCGCTTATTCAGTTGTGAAGTCTGGTTGCGCGACGCGGCGCGCGAAGTCTGTTGCTAGAGCTCTTATCGCCACTGGCT (double strand) [SLINC_6156 promoter]”, which binding is on record?
A: The binding was “no binding”.

Q: “AGCCAGTGGCGATAAGGCTGGGCCTGCCGTTCTCAAGGGGCTGCACGGGGTGTGTGGTTTAGACCAATCCAGCCTCCAATCTAACAGAACCTCGCCCGGCCTCCCAGGTCTGCCGGGTGTCCCGGAGATGACCGGAAACCCTCGGCGAGGGCACCCCTCGCCCCGCGGTCCCTACGTCAGCGAACTTATCGCCACTGGCT (double strand) [nagB promoter]” was tested. Which binding did it give?
A: The binding was “binds”.

Q: “AGCCAGTGGCGATAAGGGTTCCTGCATATGTAGCTCGTATAACGGCTGGTCAGAGCCGTTCCAGCACTCTTGACAGGTGTATTGGCCTGGTCCAAGCTCCGGGTACTGGTCTACACCATTGGTCCAGGTCCCGGCTCCATGGGCGGGGGGTGTGGGCATCCCTGAGGAGGCTTATCGCCACTGGCT (double strand) [dasA promoter]” was tested. Which binding did it give?
A: The binding was “binds”.

Q: For “AGCCAGTGGCGATAAGTCACTCGGTCTTCCCGTCCGCCGGACCGCCAACCCCTACCTCGCCAGGGCCCTGGGATAGGCCGGCGGGCGGCGCCGCCCGTGACGCGTAGCTGCCCTGGACGAAGGAGGCCACGCGTCGGCCGCGCCACTCCTGCGGGGCGCCCGGGCCGAGCGCGGTGACCGTGCCGGGCTGCGTAGGCTCACAGACATGGCTGAGATCGGGCTGCGTGCTTATCGCCACTGGCT (double strand) [SLINC_3938 promoter]”, which binding is on record?
A: The binding was “no binding”.
